Measured values as given in patent US7223734B2, “Plasma protein-binding ligands” (The American National Red Cross, priority 2002, dated 2007).
Non-standard residues stand in square brackets, D forms with d. No end group written: not given here. 2Nal = N[C@@H](Cc1ccc2ccccc2c1)C(=O)O

Key:
vWF/fVIII [1] = target: T1, vWF/fVIII (Homo sapiens, UniProt P04275); assay: Primary screening of 6-mer library for vWF/fVIII ligands; assay type: binding; set-up: from tissue; host or cells: human plasma (first round also purified vWF of unstated origin); details: bead screening, immunodetection
Procedure: The ToyoPearl 650-M amino resin displaying the library of D- or L-hexamers ([…]) was incubated either with plasma or purified vWF in TBS buffer or EQ buffer. The captured proteins were subsequently eluted stepwise from the resin beads with sodium chloride (0.5 M, 1.0 M, 2.0 M) and guanidine (2–6 M). The target proteins were detected immunologically after transfer onto a PVDF membrane. One of three detection strategies was employed to detect target protein binding. A one-step immunodetection assay using a specific HRP-conjugated polyclonal sheep anti-human vWF antibody was performed. A differential-subtractive immuno-detection assay entailed detecting proteins transferred onto membranes with specific HRP-conjugated polyclonal sheep anti-human vWF antibody in 1:10,000 dilution (AHP062P; Serotec) followed by exposure to chemiluminescence substrate ECLPlus. Membranes were stripped and re-probed with rabbit anti-human albumin antibody (No. A0433, Lot No. 031K4897 from Sigma) followed by secondary alkaline phosphatase-labeled goat anti rabbit antibody (Tropix). Following film development, films were aligned and dots that appeared on films for vWF and on albumin films were deemed background signal. Dots positive for vWF but not for albumin were considered positive. A detection assay using radio-labeled antibody also was performed. Freshly I125-radiolabeled monoclonal anti-human vWF antibody, 101.104 (VWFAE; Enzyme Research) in dilution 1:250 in hSA-Hepes-0.14 M NaCl-Tween buffer was used for detection. After washing, membranes were exposed to Kodak films for 48 hrs at −80° C. Positive beads were picked and prepared for re-probing.
All beads collected from several gels were pooled in the same tube, washed with water and incubated in 8 M Guanidine to remove remaining proteins before re-probing. After extensive washing with water and citrate buffer, the resin beads were blocked with 3% human albumin for 2 hours and incubated with human plasma. Resin beads were immobilized in agarose gels (6 cm×7 cm) and target protein was transferred to a PVDF membrane in 2 M NaCl for 20 hours. Membranes were blocked, incubated with 101.104 anti-vWF antibody, and detected with secondary goat/anti-mouse-HRP. In some experiments, sheep anti-human vWF antibody conjugated with HRP was used for detection. Positive beads were picked, washed, and the attached ligands were sequenced.
For some re-probing experiments, resin beads linked to target proteins were visualized by adding specific antibody and color substrate to facilitate further alignment. Detection of a target protein bound to the resin beads by non-labeled monoclonal antibody 101.104 anti-vWF was used followed by goat/anti-mouse antibody conjugated with alkaline phophatase and FastRed prior to immobilizing beads in the agarose gel. Additional substrate CDPStar was applied directly onto a gel with immobilized beads, and the gel was exposed to a Kodak film. Dark spots on the film were correlated with red spots on the gel to ensure appropriate alignment. The proteins from resin beads immobilized in the gel were transferred onto a membrane and developed again with radiolabeled monoclonal antibody against vWF. The films and gel were aligned, and resin beads that appeared positive in all stages were picked, washed, and attached ligands sequenced.

API = target: T2, API (Homo sapiens, UniProt P01009); assay: Primary screening of 6-mer library for API-binding ligands; details: bead screening, immunodetection / radiolabel
T2 construct: from tissue; host or cells: human plasma (whole, fibrinogen-depleted or F1-Apo-depleted)
Procedure: Peptide libraries attached to Toyopearl-AF Amino 650M resin or Tentagel resin were evaluated with 14C-labeled fibrinogen and API. All steps were performed at room temperature. Specifically, 20 mg of Toyopearl resin beads or 40 mg of Tentagel resin beads were suspended in 20% methanol for a minimum of 2 hours in 15 ml conical polypropylene tubes (Corning). After rinsing with distilled water, the resin beads were equilibrated in 0.15 M NaCl, 0.020 M sodium citrate, pH 7.3. The resin beads were then blocked for 2 hours with 1% casein (Sigma) in 0.15M NaCl, 0.020M sodium citrate, pH 7.3. Following blocking, the resin beads were centrifuged and the supernatant removed. A solution containing 1 mM of C^14-labeled fibrinogen or 30 μM of C^14-labeled API was applied to the resin beads in the blocking solution in the presence of 0.1% Tween-20 (Sigma). The materials were incubated for 2 hours. The resin beads were washed with 0.15 M NaCl, 0.020 M sodium citrate, 0.05% Tween-20, pH 7.3, in a batch method (fibrinogen ligands) or in disposable BioRad 10 ml columns (API ligands) until radiation counts reached the background level of less than 40 DPM. The resin beads were divided into separate tubes to obtain approximately 5–10 mg of resin beads per sheet. This was accomplished by mixing each aliquot of resin beads with 20–22 ml of 1% low melting agarose solution (Sigma) at less than 40° C., and rapidly pouring the mixture onto GelBond® film sheets (BMA Cat. No. 53749, 16×18 cm; Cat. No. 53759, 12.5×24.5 cm). Spreading of the resin beads to the edge of the gel sheets was prevented by creating frames (about 23 cm×about 10 cm or about 15 cm×about 15 cm) with several layers of masking tape. About 20–22 ml of resin bead-agarose mixture was plated on each GelBond sheet. Special care was taken to spread the beads in an even monolayer to facilitate identification and isolation of individual “hot” beads. The agarose gel was then air-dried overnight and placed, bead side down, on X-ray film (Kodak Biomax MR). The agarose and autoradiography film were exposed for 4–14 days followed by a second exposure of 7 days in an about 20 cm×about 25 cm stainless steel cassette. Afterwards, the films were taped together and marked with several staple holes to ensure proper alignment of beads in agarose to film. After the films were developed, the positive beads that appeared on both films were identified under the microscope and picked by aligning the developed film(s) and agarose gel via the staple holes. Beads to be sequenced were carefully picked by cutting a square trench around the bead with a scalpel, and hydrating this area with distilled water. […]

vWF/fVIII [2] = target: T1, vWF/fVIII; assay: Removal of vWF/fVIII from plasma on D-EADna2′ED resin, fVIII chromogenic assay (Example 11); assay type: binding; set-up: from tissue; host or cells: pooled human plasma; details: for FVIII / Total FVIII: Chromogenic Assay
Procedure: (§1) Pooled human plasma (20 ml) was added to 0.8 ml of resin and incubated for 30 minutes while gently rotating. Resin was settled under gravity or by short gentle centrifugation, and the supernatant was collected (the equivalent of “flow-through” of the previous examples). The resin was then packed into an Omni column and the chromatography was completed using the ÄKTAExplorer system. The flow rate was kept constant at 0.4 ml/min (LV=31 cm/h; retention time=2 minutes). After washing of the resin with EQ buffer to baseline, the bound proteins were eluted from the resin with 10 column volumes (CV) of 0.5 M NaCl, followed by 10 CVs of 0.75 M NaCl, 1.0 M NaCl/1% Tween (all in 0.02 M sodium citrate, pH 7.0) and 2.0 M guanidine. Twenty-five microliters of 0.4 M calcium chloride was added to each fraction collected, and the fractions were evaluated by OD reading and Western Blots for vWF and fVIII antigen. The fVIII activity of pooled fractions was determined by chromogenic and coagulation assays.

vWF/fVIII [3] = target: T1, vWF/fVIII; assay: Removal of vWF/fVIII from plasma on D-EADna2′ED resin, fVIII coagulation assay (Example 11); assay type: binding; set-up: from tissue; host or cells: pooled human plasma
Procedure: as §1

paraoxonase = details: resin bead suspension
Procedure: Paraoxonase binding to a WWLHAN (SEQ ID NO: 56)-displaying resin was evaluated according to the following protocol. Rabbit serum diluted 1/10 times with PBS ([…]) was incubated in a rotating Eppendorf tube with 50 μl of D-WWLHAN (SEQ ID NO: 56)-displaying resin suspension containing approximately […] of resin. The resin was previously soaked in 20% methanol overnight and washed 3 times with PBS to remove the methanol traces and resuspended in paraoxonase assay buffer (20 mM Tris pH 8.0, 150 mM NaCl, and 2 mM CaCl2). After 1 hour incubation at 37° C., resin beads were precipitated by centrifugation at 8000 g for 1 min in an Eppendorf microcentrifuge. Supernatants were transferred into separate Eppendorf tubes and resin bead pellets were resuspended in equal volumes of paraoxonase assay buffer. Paraoxonase activity of resin bead suspensions and supernatant solutions was measured. In particular, 100 μl of paraoxonase assay buffer containing 100 μm of DEPFMU (a fluorogenic substrate for paraoxonase detection) was mixed with […] of supernatant or 10 μl of resin bead suspension, or the original serum solution in a standard microtiter plate well. After thorough mixing, the plate solution was incubated for 20 minutes at 37° C. Hydrolysis of DEPFMU was quantified by measuring the fluorescence level at […] using a commercial fluorometer. The level of fluorescence correlates with the level of 6,8-difluoro-4-methylumbelliferyl released from DEPFMU as a result of paraoxonase-mediated hydrolysis. The actual amount of 6,8-difluoro-4-methylumbelliferyl released in the assay can be calibrated with a known amount of 6,8-difluoro-4-methylumbelliferyl.
Several different D-WWLHIN (SEQ ID NO: 33) analogs were screened for the ability to bind to paraoxonase under the conditions described in Example 7. For this experiment, the following resins were tested: WWLHAN (SEQ ID NO: 56), AWLHIN (SEQ ID NO: 59), WALHIN (SEQ ID NO: 60), WWAHIN (SEQ ID NO: 61), WWLHIA (SEQ ID NO: 63), WYLHIN (SEQ ID NO: 35), WWLFIN (SEQ ID NO: 36), and na1′WLHIN (SEQ ID NO: 40).

T2 sequence (P01009 25-418): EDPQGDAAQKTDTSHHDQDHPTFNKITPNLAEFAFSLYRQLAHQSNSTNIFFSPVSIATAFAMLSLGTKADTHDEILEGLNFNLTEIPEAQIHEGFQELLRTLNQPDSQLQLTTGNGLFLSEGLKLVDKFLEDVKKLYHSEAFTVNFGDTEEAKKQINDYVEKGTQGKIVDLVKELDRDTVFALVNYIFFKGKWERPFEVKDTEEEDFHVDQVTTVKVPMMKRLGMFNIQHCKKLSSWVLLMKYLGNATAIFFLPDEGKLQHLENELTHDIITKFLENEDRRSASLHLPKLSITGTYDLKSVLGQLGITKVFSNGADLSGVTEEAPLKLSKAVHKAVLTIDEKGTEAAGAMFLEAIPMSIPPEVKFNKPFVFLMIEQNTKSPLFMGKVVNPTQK

For QWFPEK, the “identified as vWF/fVIII binding peptide from the 6-mer library” value (from here on “identified as vWF/fVIII binding peptide”) (vWF/fVIII [1]) was “vWF/fVIII binding”.
In the case of HFDLHR, the “identified as API-binding peptide ligand from the 6-mer library” value (API) is reported as “API-binding”.
In the case of YLHYQT, the “identified as vWF/fVIII binding peptide” value (vWF/fVIII [1]) is reported as “vWF/fVIII binding”.
With YVDEDD the “identified as vWF/fVIII binding peptide” value (vWF/fVIII [1]) was “vWF/fVIII binding”.
With “EADna2′ED (EAD[2Nal]ED; not fully specified; also: D-amino acids, positions not given here) [D-EADna2′ED]” the FVIII (vWF/fVIII [2]; Elution 1 (0.75 M NaCl)) was 0.46 IU/ml, the “Total FVIII” value (vWF/fVIII [2]; Elution 1 (0.75 M NaCl)) was 4.6 IU and the FVIII (vWF/fVIII [2]; Elution 2 (1.0 M NaCl)) was 0 IU/ml. For the same substance, the “Total FVIII” value (vWF/fVIII [2]; Elution 2 (1.0 M NaCl)) was 0 IU, the “Total FVIII” value (vWF/fVIII [2]; Flow-Through, load 21.4 IU) was 1.6 IU and the FVIII (vWF/fVIII [2]; Flow-Through, plasma load 20 ml, 1.07 IU/ml) was 0.08 IU/ml. For the same substance, the FVIII (vWF/fVIII [2]; Wash (0.5 M NaCl)) was 0.12 IU/ml, the “Total FVIII” value (vWF/fVIII [2]; Wash (0.5 M NaCl)) was 1.2 IU and the “binding of vWF/fVIII by the resin” value (vWF/fVIII [2]; plasma, fVIII activity and Western Blot for vWF) was “binds vWF/fVIII”. For the same substance, the FVIII (vWF/fVIII [3]; Elution 1 (0.75 M NaCl)) was 0.39 IU/ml, the “Total FVIII” value (vWF/fVIII [3]; Elution 1 (0.75 M NaCl)) was 3.9 IU and the FVIII (vWF/fVIII [3]; Elution 2 (1.0 M NaCl)) was 0 IU/ml. The “Total FVIII” value (vWF/fVIII [3]; Elution 2 (1.0 M NaCl)) was 0 IU, the “Total FVIII” value (vWF/fVIII [3]; Flow-Through, load 8.46 IU) was 1.6 IU and the FVIII (vWF/fVIII [3]; Flow-Through, plasma load 0.423 IU/ml) was 0.08 IU/ml. For the same substance, the FVIII (vWF/fVIII [3]; Wash (0.5 M NaCl)) was 0 IU/ml, the “Total FVIII” value (vWF/fVIII [3]; Wash (0.5 M NaCl)) was 0 IU and the “identified as vWF/fVIII binding peptide” value (vWF/fVIII [1]) was “vWF/fVIII binding”.
In the case of WWLFIN [D-WWLFIN], the “paraoxonase activity of bead fractions” value (paraoxonase) is reported as “Significant activity”.
For WWAHIN [D-WWAHIN], the “paraoxonase activity of bead fractions” value (paraoxonase) was “Significant activity”.
For YHLGWL, the “identified as vWF/fVIII binding peptide” value (vWF/fVIII [1]) was “vWF/fVIII binding”.
With WALHIN [D-WALHIN] the “paraoxonase activity of bead fractions” value (paraoxonase) was “Significant activity”.
For LEDna2′EE (LED[2Nal]EE), the “identified as vWF/fVIII binding peptide” value (vWF/fVIII [1]) was “vWF/fVIII binding”.
With EDSWDV the “identified as vWF/fVIII binding peptide” value (vWF/fVIII [1]) was “vWF/fVIII binding”.
